Laboratory results reported in patent US5691166.

What was measured:
[1] = biological target: acid-denatured hemoglobin
[2] = biological target: growth hormone releasing factor (recombinantly synthesized as described in EP 206783)
[3] = biological target: epidermal growth factor (recombinantly synthesized molecule consisting of the first 52 amino acids of the authentic 53 amino acid EGF molecule)

| intact peptide remaining after 4 h incubation in broth (reverse phase HPLC) [2] | intact peptide remaining after 8 h incubation in broth (reverse phase HPLC) [3] | Substance | proteinase A activity, ΔOD/µg protein (release of amino acids from acid-denatured hemoglobin, 90 min) (ΔOD/µg protein) [1] |
| --- | --- | --- | --- |
|  |  | Saccharomyces cerevisiae proteinase A (encoded by the S. cerevisiae PEP4 gene) (from UniProt P07267) (enzyme) | 28.1 |
| > 60 % intact | > 90 % intact | proteolytic activity of the cell-free broth from the one-liter fermentation of the pep4 P. pastoris strain p13 |  |
| < 10 % intact | < 10 % intact | proteolytic activity of the cell-free broth from a one-liter fermentation of the HIS4 PEP4 P. pastoris strain G+PAO804H2 |  |
|  |  | Pichia pastoris proteinase A (product of the Pichia PEP4 gene) (enzyme) | 13.1 |
